Measurements as given in publication PMC3048092.

Target: FITC-BAD pSAHB-2
Assay: cross-linking

crosslinking conversion at 2 hours of UV exposure: 35%
Substance: BCL-XLΔC (domain or fragment)
